Measured values reported in patent publication US7482016B2, “Immunogenic compositions comprising HIV-1 acetylated Tat polypeptides” (The J. David Gladstone Institutes, priority 2003, dated 2009).

B1: Tat: synthetic unacetylated 72-amino acid Tat, sequence derived from isolate HIV-1BRU (peptide)
chain: MEPVDPRLEPWKHPGSQPKTACTTCYCKKCCFHCQVCFTTKALGISYGRKKRRQRRRPPQGSQTHQVSLSKQ
B2: AcTat: synthetic Tat protein (HIV-1BRU sequence, 72 amino acids) containing a single acetylated lysine at position 50 (peptide)
chain: B1 chain

Experiments:
[1] = test system: Tat transactivation of the HIV LTR in HeLa-Tat cells; test: Nuclear microinjection of HIV LTR-luciferase reporter, Tat transactivation; format: cell-based; settings: 8 μM solution microinjected into HeLa-Tat cells, three independent experiments
Experimental: Microinjection experiments were previously described (Dorr et al. (2002), supra). Microinjection was performed at room temperature with a Zeiss automated injection system (Carl Zeiss, Oberkochen, Germany). Samples were prepared as a […] injection mix containing the luciferase reporter constructs (100 ng/ml) and CMV-GFP (50 ng/ml) constructs in sterile water or phosphate buffer. In individual experiments α-AcARM or preimmune immunoglobulins (5 mg/ml), Lys-CoA (8 μM) or synthetic Tat (30 μg/ml) were included in the mix. Four hours after injection, cells were examined on a Zeiss Axiovert microscope to determine the number of GFP-positive cells, washed in cold phosphate buffer and stored at −70° C. for luciferase assays (Promega). The α-p24 monoclonal antibody (183-H12-5C) was used in control microinjections with α-AcARM mAbs and was obtained through the AIDS Research and Reference Reagent Program, NIH (Chesebro et al. (1992) J Virol 66, 6547-6554). […]
FIGS. 3A-D. (FIG. 3A) Microinjection of the p300-HAT inhibitor Lys-CoA (8 μM), HIV LTR-luciferase and CMV-GFP into HeLa or HeLa-Tat cells. Each value is expressed as a percentage of the value obtained in control cells, injected with LTR-luciferase and CMV-GFP alone. […]

[2] = test system: TAR-mutant LTR-luciferase, RSV LTR-luciferase, 5×UAS/Gal4-VP16, CMV-GFP, LTR alone in HeLa cells; test: Microinjection control experiments with Tat-independent reporters; format: cell-based
Experimental: Microinjection was performed at room temperature with a Zeiss automated injection system (Carl Zeiss, Oberkochen, Germany). Samples were prepared as a 20111 injection mix containing the luciferase reporter constructs (100 ng/ml) and CMV-GFP (50 ng/ml) constructs in sterile water or phosphate buffer. In individual experiments α-AcARM or preimmune immunoglobulins (5 mg/ml), Lys-CoA (8 μM) or synthetic Tat (30 μg/ml) were included in the mix. Four hours after injection, cells were examined on a Zeiss Axiovert microscope to determine the number of GFP-positive cells, washed in cold phosphate buffer and stored at −70° C. for luciferase assays (Promega).
A GFP-expressing construct (CMV-GFP) was coinjected to count the number of injected cells before analysis of luciferase activity.

[3] = test system: p300-dependent transcription of MyoD RNA; settings: microinjected into nuclei of oocytes; cited from earlier work
[4] = test system: Jurkat T cells expressing FLAG-tagged Tat from the HIV LTR; test: Western blot of lysates of Jurkat T cells expressing FLAG-tagged Tat after TSA; format: cell-based; settings: 400 nM TSA, 16 hours
Experimental: Immunoglobulin G were purified on Gammabind Plus Sepharose (Amersham).
Next, cellular extracts were analyzed with anti-AcARM antibodies. A cell line was generated that constitutively expressed a FLAG-tagged Tat protein from the HIV LTR by transducing Jurkat T cells with a Tat-encoding lentiviral vector (Jordan et al., 2001, supra). Following treatment with trichostatin A (TSA), a specific inhibitor of cellular HDACs, AcTat was detected by western blot analysis with anti-AcARM mAbs in cells expressing Tat, but not in control cells expressing GFP (FIG. 1D). To enhance the signal, immunoprecipitation was performed with anti-FLAG monoclonal antibodies before western blot analysis. Again, AcTat was detected in Tat-expressing, but not in GFP control cells (FIG. 1E). Expression of AcTat was enhanced when cells were treated with TSA.

HIV TAR RNA = test: RNA gel mobility shift assay; format: binding; settings: for effect of mutations in the loop of TAR on binding: TARΔLoop probe; for binding to wild-type TAR RNA: absence of CyclinT1; for effect of addition of CyclinT1 on affinity for wild-type TAR RNA: recombinant CyclinT1 present
Experimental: (§1) TAR RNAs were synthesized from HindIII-linearized pGEM3Zf-TAR constructs, which contained an oligonucleotide corresponding to the HIVLAI TAR sequence (nucleotides +17 to +44) ligated into the EcoR1-HindIII cloning sites, downstream of the T7 RNA polymerase start site. In the TARΔbulge construct, thymidine 23 was replaced with an adenosine, and the TARΔloop construct contained C30→A, T31→G, and G33→T mutation. In vitro transcription reactions were performed with the Riboprobe system (Promega, Madison, Wis.) with 1 μg of linearized plasmids and 50 μCi of ^32P-CTP (20 μCi/μl; Amersham Pharmacia Biotech). Transcripts were treated with 2 U DNAse I (Promega), extracted with a phenol:chloroform mixture, and purified over a Nick column (Amersham Pharmacia Biotech). Gel mobility reactions (final volume, 16 μl) were carried out at 30° C. as described (Wei et al. (1998) Cell 92, 451-462) with 2×10^4 cpm TAR probes/reaction with indicated concentrations of Tat proteins and 160 ng of GST-cleaved CyclinT1 (amino acids 1-303) (Garber et al. (1998) Curr Opin Immunol 11, 460-465). RNA-binding complexes were separated on a pre-run 4% Tris-glycine gel.
(§2) FIGS. 4A-D. (FIG. 4A) Bulge-dependent binding of Tat to TAR. Radiolabeled riboprobes corresponding to the HIV TAR element or a mutated form (TARΔBulge) were incubated with 0, 40, 80 and 160 ng of Tat and analyzed on a 4% Tris-glycine gel. (FIG. 4B) High-affinity binding of AcTat to TAR RNA, but […]. The wild-type TAR probe was incubated with increasing amounts of synthetic Tat or AcTat (0, 1.6 ng, 8 ng, 40 ng, and 200 ng) in the absence or presence of recombinant CyclinT1. The same experiment with a mutated TAR RNA probe containing mutations in the apical loop is shown below (TARΔLoop). (FIG. 4C) Binding of AcTat to CyclinT1 in the absence of TAR. Increasing amounts (0, 0.5 μg, 1 μg, and 2 μg) of Tat or AcTat were incubated with GST-CyclinT1, Tat-binding-deficient GST-CyclinT1 (C261A) or GST alone. Bound proteins were analyzed with monoclonal anti-Tat antibodies, directed against the N-terminus of Tat. 50% of input Tat proteins are shown. (FIG. 4D) Binding of Tat and AcTat to RNAPII. Biotinylated Tat or AcTat proteins (0, 1, 2, 4, 8 μg) were incubated with nuclear extracts, precipitated with streptavidin-sepharose and analyzed with modification-specific antibodies directed against the CTD of RNAPII. AcTat was detected with monoclonal anti-AcARM antibodies. Both Tat proteins reacted with horseradish peroxidase-conjugated streptavidin (SA-HRP).

Tat/TAR/CyclinT1 complex = target: T1, Tat/TAR/CyclinT1 complex (Homo sapiens, UniProt O60563); test: RNA gel shift with recombinant CyclinT1, ternary complex formation; format: binding; settings: presence of CyclinT1
T1 construct: 160 ng of GST-cleaved CyclinT1 (amino acids 1-303); GST (N, cleaved yes); made in house
Experimental: as §1, with “Gel mobility reactions (final volume, 16 μl) were carried out at 30° C. as described (Wei et al. (1998) Cell 92, 451-462) with 2×10^4 cpm TAR probes/reaction with indicated concentrations of Tat proteins and 160 ng of GST-cleaved CyclinT1 (amino acids 1-303) (Garber et al. (1998) Curr Opin Immunol 11, 460-465). RNA-binding complexes were separated on a pre-run 4% Tris-glycine gel.” left out
FIGS. 4A-D. (FIG. 4A) Bulge-dependent binding of Tat to TAR. Radiolabeled riboprobes corresponding to the HIV TAR element or a mutated form (TARΔBulge) were incubated with 0, 40, 80 and 160 ng of Tat and analyzed on a 4% Tris-glycine gel. […] Bound proteins were analyzed with monoclonal anti-Tat antibodies, directed against the N-terminus of Tat. […] Biotinylated Tat or AcTat proteins (0, 1, 2, 4, 8 μg) were incubated with nuclear extracts, precipitated with streptavidin-sepharose and analyzed with modification-specific antibodies directed against the CTD of RNAPII. AcTat was detected with monoclonal anti-AcARM antibodies. […]

GST-CyclinT1 [5] = target: T2, GST-CyclinT1 (Homo sapiens, UniProt O60563); test: GST binding (pulldown) assay; settings: absence of TAR
T2 construct: Full-length GST-CyclinT1, GST-CyclinT1C261A or GST alone were expressed in the BL21 strain of Escherichia coli; made in house; host or cells: Escherichia coli BL21
Experimental: (§3) Full-length GST-CyclinT1, GST-CyclinT1C261A or GST alone were expressed in the BL21 strain of Escherichia coli and purified on glutathione-Sepharose beads (Amersham Pharmacia Biotech) as described (Herrmann and Rice (1993) Virology 197, 601-608). For binding assays ˜1 μg of bead-coupled GST-CyclinT1, GST-CyclinT1C261A or GST alone was incubated with Tat and AcTat in 100 μl modified Buffer C for 3.5 hr at 4°. Buffer C is described in (Fujinaga et al. (1999) Proc. Natl. Acad. Sci. USA 96, 1285-1290) and was used without ZnCl2 and SDS. Beads were washed three times with modified Buffer C containing 1M KCl, boiled in Laemmli buffer and supernatant was analyzed by immunoblotting using monoclonal anti-Tat antibodies (clone AC11.AE12; CPR Inc.).
as §2

GST-CyclinT1 [6] = target: T3, GST-CyclinT1 (Homo sapiens, UniProt O60563, C261A); test: GST binding (pulldown) assay
T3 construct: Full-length GST-CyclinT1, GST-CyclinT1C261A or GST alone were expressed in the BL21 strain of Escherichia coli; made in house; host or cells: Escherichia coli BL21
Experimental: as §3, §2

RNAPII = target: T4, RNAPII (Homo sapiens, UniProt P24928); test: RNA polymerase II binding in 293 nuclear extracts; settings: biotinylated proteins
T4 construct: analyzed with modification-specific antibodies directed against the CTD of RNAPII; endogenous in cells; host or cells: 293 nuclear extract
Experimental: Synthetic biotinylated nonacetylated and acetylated Tat proteins were incubated for 2 hours with 50 μl 293 nuclear extracts prepared according to (Dignam et al. (1983) Methods Enzymol. 101, 582-598) in buffer conditions described in (Mavankal et al., (1996) Proc. Natl. Acad. Sci. USA 93, 2089-2094). Complexes were collected with streptavidin-sepharose beads, separated by SDS-PAGE electrophoresis and analyzed with α-RNAPII antibodies (clones H14 and 8WG16; CPR Inc) or with α-AcARM mAbs and HRP-conjugated Streptavidin (Jackson Immunoresearch Laboratories).
as §2

T2 sequence (O60563 whole entry): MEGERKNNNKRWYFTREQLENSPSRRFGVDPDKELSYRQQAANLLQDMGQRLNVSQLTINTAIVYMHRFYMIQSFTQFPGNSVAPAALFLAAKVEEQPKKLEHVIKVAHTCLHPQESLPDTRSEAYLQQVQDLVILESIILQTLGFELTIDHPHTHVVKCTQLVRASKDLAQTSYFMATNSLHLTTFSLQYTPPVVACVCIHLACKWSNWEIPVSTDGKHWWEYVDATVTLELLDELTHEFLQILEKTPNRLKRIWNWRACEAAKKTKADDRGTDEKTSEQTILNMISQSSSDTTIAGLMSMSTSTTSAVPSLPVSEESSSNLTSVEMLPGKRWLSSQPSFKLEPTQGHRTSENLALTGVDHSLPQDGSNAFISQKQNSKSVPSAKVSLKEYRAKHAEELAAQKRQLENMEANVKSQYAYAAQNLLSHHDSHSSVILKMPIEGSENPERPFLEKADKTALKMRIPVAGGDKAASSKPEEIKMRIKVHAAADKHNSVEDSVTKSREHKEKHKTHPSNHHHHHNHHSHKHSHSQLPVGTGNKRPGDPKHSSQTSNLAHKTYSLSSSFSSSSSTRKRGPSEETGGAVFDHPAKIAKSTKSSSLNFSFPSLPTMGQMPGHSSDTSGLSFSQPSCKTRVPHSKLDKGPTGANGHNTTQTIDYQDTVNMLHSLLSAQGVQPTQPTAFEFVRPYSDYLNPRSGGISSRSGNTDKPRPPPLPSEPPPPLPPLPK
T1 sequence (O60563 1-303, one chain of several): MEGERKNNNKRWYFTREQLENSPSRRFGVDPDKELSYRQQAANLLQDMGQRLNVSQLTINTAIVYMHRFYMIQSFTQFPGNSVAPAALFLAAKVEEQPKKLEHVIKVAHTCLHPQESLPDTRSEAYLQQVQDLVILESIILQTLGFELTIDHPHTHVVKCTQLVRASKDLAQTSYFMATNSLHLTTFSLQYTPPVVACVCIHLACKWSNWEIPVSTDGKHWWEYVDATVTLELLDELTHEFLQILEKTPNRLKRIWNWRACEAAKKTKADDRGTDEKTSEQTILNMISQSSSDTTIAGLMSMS
T3 sequence (O60563 whole entry C261A): as the sequence (O60563 whole entry) above, with C261A counted along it

Molecule | inhibition of Tat activity on the HIV LTR [1] | effect on the LTR alone ([2]; coinjected into HeLa cells (no Tat)) | effect on coinjected CMV-GFP reporter ([2]; same concentration (8 μM)) | p300-dependent transcription of MyoD RNA [3] | Tat expression (anti-FLAG immunodetection) [4] | expression of AcTat ([4]; anti-FLAG immunoprecipitation, anti-AcARM blot) | binding to bulge-mutant TAR RNA (HIV TAR RNA; TARΔBulge probe) | effect of mutations in the loop of TAR on binding (HIV TAR RNA) | binding to wild-type TAR RNA (HIV TAR RNA) | effect of addition of CyclinT1 on affinity for wild-type TAR RNA (HIV TAR RNA) | formation of the Tat/TAR/CyclinT1 ternary complex (Tat/TAR/CyclinT1 complex) | binding to wild-type GST-CyclinT1 (GST-CyclinT1 [5]) | binding to mutant CyclinT1 (C261A) or GST alone (GST-CyclinT1 [6]) | binding to nonphosphorylated RNAPII (RNAPII) | concentration at which retarded bands form, relative to unacetylated Tat (HIV TAR RNA; wild-type TAR probe) | interaction with hyperphosphorylated RNAPII complex (RNAPII)
CC(=O)N[C@@H](CCCCNC(=O)CSCCNC(=O)CCNC(=O)[C@H](O)C(C)(C)COP(=O)(O)OP(=O)(O)OC[C@H]1O[C@@H](n2cnc3c(N)ncnc32)[C@H](O)[C@@H]1OP(=O)(O)O)C(N)=O [Lys-CoA] | 60-70% | no effect | no effect | efficiently blocked |  |  |  |  |  |  |  |  |  |  |  | 
CC(/C=C/C(=O)NO)=C\[C@@H](C)C(=O)c1ccc(N(C)C)cc1 [TSA, trichostatin A] |  |  |  |  | overall upregulation | enhanced |  |  |  |  |  |  |  |  |  | 
B1 |  |  |  |  |  |  | blocked | little effect | high affinity | did not alter | formed the expected Tat/TAR/CyclinT1 complex | equal affinities | Neither Tat nor AcTat bound | no binding |  | 
B2 |  |  |  |  |  |  |  | little effect | affinities equal to that of unacetylated Tat | did not alter | could not | equal affinities | Neither Tat nor AcTat bound | no binding | one-third | higher affinity than Tat
